Data as given in patent US20190083587A1 (Novo Nordisk, published 2019).
Numbering of substitutions follows the chain as printed. In names and notes the source's numbering stands.

T1: hTLT-1 ECD-His (human, UniProt Q86YW5 16-162)
T1 construct: Extracellular domain of human TLT-1 with C-terminal His-6 tag; the range 16-168 is computed from these; also called TLT-1-His; His tagged human TLT1
T1 sequence: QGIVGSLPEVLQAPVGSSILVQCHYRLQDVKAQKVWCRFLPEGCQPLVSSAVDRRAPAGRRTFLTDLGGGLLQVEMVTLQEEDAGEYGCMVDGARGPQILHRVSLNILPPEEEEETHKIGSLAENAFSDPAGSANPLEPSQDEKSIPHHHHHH

T2: hTLT-1 ECD-HPC4 F54A (human, UniProt Q86YW5 16-162)
T2 construct: Built as m17; also called Ala mutant 12
T2 chain: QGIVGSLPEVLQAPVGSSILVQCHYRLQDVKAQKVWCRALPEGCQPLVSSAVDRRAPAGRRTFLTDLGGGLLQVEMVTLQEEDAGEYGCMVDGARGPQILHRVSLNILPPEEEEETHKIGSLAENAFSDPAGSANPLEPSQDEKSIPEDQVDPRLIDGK

T3: hTLT-1 ECD-HPC4 M91A (human, UniProt Q86YW5 16-162)
T3 construct: Built as m17; also called Ala mutant 24
T3 chain: T2 chain with A39F, M76A

T4: hTLT-1 ECD-HPC4 R41A (human, UniProt Q86YW5 16-162)
T4 construct: Built as m17; also called Ala mutant 7
T4 chain: T2 chain with R26A, A39F

T5: hTLT-1 ECD-HPC4 L42A (human, UniProt Q86YW5 16-162)
T5 construct: Built as m17; also called Ala mutant 8
T5 chain: T2 chain with L27A, A39F

T6: hTLT-1 ECD-HPC4 Q43A (human, UniProt Q86YW5 16-162)
T6 construct: Built as m17; also called Ala mutant 9
T6 chain: T2 chain with Q28A, A39F

T7: hTLT-1 ECD-HPC4 R110A (human, UniProt Q86YW5 16-162)
T7 construct: Built as m17; also called Ala mutant 30
T7 chain: T2 chain with A39F, R95A

T8: hTLT-1 ECD-HPC4 H116A (human, UniProt Q86YW5 16-162)
T8 construct: Built as m17; also called Ala mutant 31
T8 chain: T2 chain with A39F, H101A

T9: hTLT-1 ECD-HPC4 K46A (human, UniProt Q86YW5 16-162)
T9 construct: Built as m17; also called Ala mutant 10
T9 chain: T2 chain with K31A, A39F

T10: hTLT-1 ECD-HPC4 R117A (human, UniProt Q86YW5 16-162)
T10 construct: Built as m17; also called Ala mutant 32
T10 chain: T2 chain with A39F, R102A

T11: hTLT-1 ECD-HPC4 S119A (human, UniProt Q86YW5 16-162)
T11 construct: Built as m17; also called Ala mutant 33
T11 chain: T2 chain with A39F, S104A

B1: mAb0062 (antibody, V domains shown)
VH: QVQLQQSGAEPMKPGASVKISCKATGYTFSSHWIEWIKQRPGHGLEWIGEILPGSGNTNYNEKFKGKATFTADTSSNTAYMQLSSLTSEDSAVYYCARGYYGLNYDWYFDVWGAGTTVTVSS
VL: DIQMTQTTSSLSASLGDRVTISCRASQDISNYLNWYQQKPDGTVKLLIFYTSRLHSGVPSRFSGSGSGTDYSLTISNLEPEDIATYYCQQDTKLPYTFGGGTKLEMKR
notes: Mouse VH/VL, human IgG4 / kappa; variant of mAb0052 (HC C91Y, Kabat); The entries seem to include signal peptides; also called antiTLT-1 0062mab; (0052HC.C91Y)2
B2: mAb0023 (antibody, V domains shown)
VH: EVRLVESGGGLVQPGGSLKLSCATSGFTFSDYFMYWIRQTPEKRLEWVAYISNGGDSSSYPDTVKGRFTISRDNAKNTLYLQMSRLKSEDTAMYYCATNKNWDDYYDMDYWGQGTSVTVSS
VL: DIVVSQSPSSLAVSAGEKVTMSCKSSQSLLNSRTRKNYLAWYQQKPGQSPKLLIYWASTRESGVPDRFTGSGSGTDFTLTISSVQAEDLAVYYCKQSYNLLTFGAGTKLELKR
notes: Mouse VH/VL, human IgG4 / kappa; also called antiTLT-1 0023mab
B3: mAb0051 (antibody, V domains shown)
VH: QVQLEQSGAELVRPGVSVKISCKGSGYTFTDYSMHWVKQSHAKSLEWIGVISTYYGDVRYNQKFKGKATMTVDKSSSTAYMALARLTSEDSAIYYCARAPMITTGAWFAYWGQGTLVTVSA
VL: SIVMTQTPKFLLVSAGDRVTITCKASQSVSNDVAWYQQKPGQSPKLLINYASSRYTGIPDRFTGSGYGTDFTFTISTVQAEDLAVYFCQQDYSSPYTFGGGTKLEIER
notes: Mouse VH/VL, human IgG4 / kappa; The entries seem to include signal peptides; also called antiTLT-1 0051mab

Assays:
hTLT-1 ECD-His = molecular target: T1, hTLT-1 ECD-His; experiment: SPR Biacore, mAb immobilised directly, TLT-1 as analyte
Procedure: Method: The mAbs of interest were either immobilized directly to a CM5 chip or by capture via a human Fc capture mAb immobilized to a CM5 chip, while TLT-1-His was immobilized by capture via an anti-His mAb CM5 chip for analysis of Fabs.
mAb direct capture: The TLT-1 mAbs were immobilised to a level of approx 500-1000 RU on a CM5 chip (50 μg/ml diluted in Na-acetate, pH 4.0) using the standard procedure recommended by the supplier. Two-fold dilutions of TLT-1 from 200 nM to 0.2 nM were tested for binding to the mAbs. Running and dilution buffer: 10 mM HEPES, 150 mM, 0.005% p20, pH 7.4. Regeneration was obtained by 10 mM Glycine, pH 1.7. mAb capture via human Fc mAb: Human Fc mAb was immobilised to approx 10.000 RU. The mAb of interest was added (approx 100 nM). Two-fold dilutions of TLT-1 from 200 nM to 0.2 nM were tested. Running and dilution buffer: 10 mM HEPES, 150 mM, 0.005% p20, pH 7.4. Regeneration was obtained in 3 M MgCl₂.

hTLT-1 ECD-HPC4 F54A = molecular target: T2, hTLT-1 ECD-HPC4 F54A; experiment: SPR ProteOn, mAb captured by anti-hFc, 100 nM mutant, signal 10 s after injection
Procedure: (§1) Each antibody was diluted in 10 mM sodium acetate pH 5.0 to a concentration of 50 μg/ml, and was immobilized to an individual flow cell at 30 μl/min for 240 s. The antibodies were immobilized to flow cells A1-A6 (horizontal direction). After immobilization, the active sites on the flow cell were blocked with 1 M ethanolamine. The final immobilization level of capture antibody typically ranged from approximately 9,000 to 10,000 RU in one experiment. Capture of the anti-TLT-1 antibodies mAb0023, mAb0051, mAb0061 and mAb0062 was conducted by diluting to 0.5 μg/ml into HBS-EP buffer (10 mM HEPES, 150 mM NaCl, 3 mM EDTA, 0.05% surfactant P20, pH 7.4) and injected at 30 μl/min for 60 s in vertical direction, creating interspot reference points with only anti-human Fc antibodies.
(§2) The final capture level of test antibodies typically ranged from approximately 200 to 300 RU in one experiment. Binding of wt or Ala mutant hTLT-1 ECD-HPC4 protein was conducted by injecting over parallel flow cells in horizontal direction to allow for comparative analyses of binding to different captured anti-TLT-1 antibodies relative to binding to the interspot references. Each hTLT-1 ECD-HPC4 protein was diluted to 100 nM, based on the calculated average Mw, into HBS-EP buffer and injected at 30 μl/min for 240 s. The GLM chip was regenerated after each injection cycle of analyte via one 18 s injection of 1 M Formic acid followed by a 18s injection of 50 mM NaOH at 100 μl/min. This regeneration step removed the anti-TLT-1 antibody and any bound TLT-1 from the immobilized capture antibody surface, and allowed for the subsequent binding of the next test sample pair.
(§3) Data analysis was performed using the ProteOn Manager™ Software. No significant non-specific binding to the interspot control surfaces was observed. Binding curves were processed by double referencing (subtraction of interspot control surface signals as well as blank buffer injections over captured anti-TLT-1 antibodies). This allowed correction for instrument noise, bulk shift and drift during sample injections. Binding signal at 10 s after stop of analyte injection was normalized to level of captured anti-TLT-1 antibody and presented as binding relative to wt hTLT-1 ECD-HPC4 protein.

hTLT-1 ECD-HPC4 M91A = molecular target: T3, hTLT-1 ECD-HPC4 M91A; experiment: as above
Procedure: as §1, §2, §3

hTLT-1 ECD-HPC4 R41A = molecular target: T4, hTLT-1 ECD-HPC4 R41A; experiment: as above
Procedure: as §1, §2, §3

hTLT-1 ECD-HPC4 L42A = molecular target: T5, hTLT-1 ECD-HPC4 L42A; experiment: as above
Procedure: as §1, §2, §3

hTLT-1 ECD-HPC4 Q43A = molecular target: T6, hTLT-1 ECD-HPC4 Q43A; experiment: as above
Procedure: as §1, §2, §3

hTLT-1 ECD-HPC4 R110A = molecular target: T7, hTLT-1 ECD-HPC4 R110A; experiment: as above
Procedure: as §1, §2, §3

hTLT-1 ECD-HPC4 H116A = molecular target: T8, hTLT-1 ECD-HPC4 H116A; experiment: as above
Procedure: as §1, §2, §3

hTLT-1 ECD-HPC4 K46A = molecular target: T9, hTLT-1 ECD-HPC4 K46A; experiment: as above
Procedure: as §1, §2, §3

hTLT-1 ECD-HPC4 R117A = molecular target: T10, hTLT-1 ECD-HPC4 R117A; experiment: as above
Procedure: as §1, §2, §3

hTLT-1 ECD-HPC4 S119A = molecular target: T11, hTLT-1 ECD-HPC4 S119A; experiment: as above
Procedure: as §1, §2, §3

Binder	Kd (hTLT-1 ECD-His) [nM]	koff (hTLT-1 ECD-His) [s⁻¹]	kon (hTLT-1 ECD-His) [M⁻¹ s⁻¹]	binding relative to wt hTLT-1 ECD-HPC4 (hTLT-1 ECD-HPC4 F54A)	binding relative to wt hTLT-1 ECD-HPC4 (hTLT-1 ECD-HPC4 M91A)	binding relative to wt hTLT-1 ECD-HPC4 (hTLT-1 ECD-HPC4 R41A)	binding relative to wt hTLT-1 ECD-HPC4 (hTLT-1 ECD-HPC4 L42A)	binding relative to wt hTLT-1 ECD-HPC4 (hTLT-1 ECD-HPC4 Q43A)	binding relative to wt hTLT-1 ECD-HPC4 (hTLT-1 ECD-HPC4 R110A)	binding relative to wt hTLT-1 ECD-HPC4 (hTLT-1 ECD-HPC4 H116A)	binding relative to wt hTLT-1 ECD-HPC4 (hTLT-1 ECD-HPC4 K46A)	binding relative to wt hTLT-1 ECD-HPC4 (hTLT-1 ECD-HPC4 R117A)	binding relative to wt hTLT-1 ECD-HPC4 (hTLT-1 ECD-HPC4 S119A)
B1	4.12	0.00134	326000	< 0.6 fraction of wt	< 0.4 fraction of wt	< 0.2 fraction of wt	< 0.6 fraction of wt	< 0.4 fraction of wt	< 0.2 fraction of wt	< 0.6 fraction of wt	–	–	–
B2	4.36	0.00125	287000	–	< 0.4 fraction of wt	–	< 0.2 fraction of wt	< 0.2 fraction of wt	< 0.2 fraction of wt	–	< 0.2 fraction of wt	–	–
B3	19.3	0.00472	245000	< 0.4 fraction of wt	< 0.2 fraction of wt	–	–	–	–	–	–	< 0.2 fraction of wt	< 0.6 fraction of wt
